Key:
[1] = target: the molecule itself; test: cryo-EM structure; single-particle cryo-EM of the purified 2:2 PAPP-A(E563Q)·STC2 complex from co-cultured 293T lines; 0.6 mg/mL; 20 mM HEPES, 100 mM NaCl, 1 mM CaCl2, pH 7.4
[2] = target: T1, 415-residue monomeric C-terminal PAPP-A fragment, PA(T1213-G1627) (human, UniProt Q13219 1213-1627); test: SPR; Biacore 3000, 25 °C; PA_T1213-G1627 amine-coupled to CM5 (7000 RU); IGFBP-4 injected 5 min at 10 µl/min; 10 mM HEPES pH 7.5, 150 mM NaCl, 2 mM CaCl2, 0.05% Tween-20; also with 10 mM EDTA; settings: both partners purified
T1 construct: PAPP-A, human, residues T1213-G1627 (SCR1-5 and the C domain with LNR3); also called PAPP-A(T1213-G1627); C-terminal fragment of PAPP-A truncated at SCR1; source: 293T cells, transient transfection
T1 sequence (looked up): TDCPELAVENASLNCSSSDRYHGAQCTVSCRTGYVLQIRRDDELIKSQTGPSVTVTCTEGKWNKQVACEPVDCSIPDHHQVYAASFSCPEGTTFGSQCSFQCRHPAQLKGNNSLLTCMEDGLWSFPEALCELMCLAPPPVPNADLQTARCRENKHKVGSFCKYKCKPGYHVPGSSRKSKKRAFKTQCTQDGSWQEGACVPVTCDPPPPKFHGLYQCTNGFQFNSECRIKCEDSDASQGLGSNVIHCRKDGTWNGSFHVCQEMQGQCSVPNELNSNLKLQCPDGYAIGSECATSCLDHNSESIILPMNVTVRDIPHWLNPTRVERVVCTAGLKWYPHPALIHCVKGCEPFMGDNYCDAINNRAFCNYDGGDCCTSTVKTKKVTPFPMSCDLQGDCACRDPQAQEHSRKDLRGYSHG

B1: active site-inactivated human PAPP-A (E563Q) (enzyme, UniProt Q13219 82-1627, looked up)
chain: EARGATEEPSPPSRALYFSGRGEQLRLRADLELPRDAFTLQVWLRAEGGQRSPAVITGLYDKCSYISRDRGWVVGIHTISDQDNKDPRYFFSLKTDRARQVTTINAHRSYLPGQWVYLAATYDGQFMKLYVNGAQVATSGEQVGGIFSPLTQKCKVLMLGGSALNHNYRGYIEHFSLWKVARTQREILSDMETHGAHTALPQLLLQENWDNVKHAWSPMKDGSSPKVEFSNAHGFLLDTSLEPPLCGQTLCDNTEVIASYNQLSSFRQPKVVRYRVVNLYEDDHKNPTVTREQVDFQHHQLAEAFKQYNISWELDVLEVSNSSLRRRLILANCDISKIGDENCDPECNHTLTGHDGGDCRHLRHPAFVKKQHNGVCDMDCNYERFNFDGGECCDPEITNVTQTCFDPDSPHRAYLDVNELKNILKLDGSTHLNIFFAKSSEEELAGVATWPWDKEALMHLGGIVLNPSFYGMPGHTHTMIHQIGHSLGLYHVFRGISEIQSCSDPCMETEPSFETGDLCNDTNPAPKHKSCGDPGPGNDTCGFHSFFNTPYNNFMSYADDDCTDSFTPNQVARMHCYLDLVYQGWQPSRKPAPVALAPQVLGHTTDSVTLEWFPPIDGHFFERELGSACHLCLEGRILVQYASNASSPMPCSPSGHWSPREAEGHPDVEQPCKSSVRTWSPNSAVNPHTVPPACPEPQGCYLELEFLYPLVPESLTIWVTFVSTDWDSSGAVNDIKLLAVSGKNISLGPQNVFCDVPLTIRLWDVGEEVYGIQIYTLDEHLEIDAAMLTSTADTPLCLQCKPLKYKVVRDPPLQMDVASILHLNRKFVDMDLNLGSVYQYWVITISGTEESEPSPAVTYIHGSGYCGDGIIQKDQGEQCDDMNKINGDGCSLFCRQEVSFNCIDEPSRCYFHDGDGVCEEFEQKTSIKDCGVYTPQGFLDQWASNASVSHQDQQCPGWVIIGQPAASQVCRTKVIDLSEGISQHAWYPCTISYPYSQLAQTTFWLRAYFSQPMVAAAVIVHLVTDGTYYGDQKQETISVQLLDTKDQSHDLGLHVLSCRNNPLIIPVVHDLSQPFYHSQAVRVSFSSPLVAISGVALRSFDNFDPVTLSSCQRGETYSPAEQSCVHFACEKTDCPELAVENASLNCSSSDRYHGAQCTVSCRTGYVLQIRRDDELIKSQTGPSVTVTCTEGKWNKQVACEPVDCSIPDHHQVYAASFSCPEGTTFGSQCSFQCRHPAQLKGNNSLLTCMEDGLWSFPEALCELMCLAPPPVPNADLQTARCRENKHKVGSFCKYKCKPGYHVPGSSRKSKKRAFKTQCTQDGSWQEGACVPVTCDPPPPKFHGLYQCTNGFQFNSECRIKCEDSDASQGLGSNVIHCRKDGTWNGSFHVCQEMQGQCSVPNELNSNLKLQCPDGYAIGSECATSCLDHNSESIILPMNVTVRDIPHWLNPTRVERVVCTAGLKWYPHPALIHCVKGCEPFMGDNYCDAINNRAFCNYDGGDCCTSTVKTKKVTPFPMSCDLQGDCACRDPQAQEHSRKDLRGYSHG
modifications: N-glycans at N390, N402, N429, N480, N601, N725, N825, N1323
notes: numbers count on UniProt Q13219; also called pregnancy-associated plasma protein-A; pappalysin-1
B1: binds [1].

B2: human IGFBP-4 (natural protein, UniProt P22692 22-258, looked up)
chain: DEAIHCPPCSEEKLARCRPPVGCEELVREPGCGCCATCALGLGMPCGVYTPRCGSGLRCYPPRGVEKPLHTLMHGQGVCMELAEIEAIQESLQPSDKDEGDHPNNSFSPCSAHDRRCLQKHFAKIRDRSTSGGKMKVNGAPREDARPVPQGSCQSELHRALERLAASQSRTHEDLYIIPIPNCDRNGNFHPKQCHPALDGQRGKCWCVDRKTGVKLPGGLEPKGELDCHQLADSFRE
notes: also called pBP4mH; source: 293T cells, transient transfection
B2: binds [2].

From PMC9579167, “Structure of the proteolytic enzyme PAPP-A with the endogenous inhibitor stanniocalcin-2 reveals its inhibitory mechanism” (Nature Communications, 2022)
